Non-standard residues stand in square brackets, D forms with d. No end group written: not given here. hArg = N=C(N)NCCCC[C@H](N)C(=O)O; Chg = N[C@H](C(=O)O)C1CCCCC1
T1: Nat1 (LTIITLE) (also: TFA salt)
T1 peptide: LTIITLE


Target: T1, Nat1 (LTIITLE)
Assay: cell-based or functional assay

Binder	IC50, Thiofiavin T aggregation assay [nM]
[dR][dW][dY][dW][dH][dH][dR] [rwywhhr]	115
[dW][dW][dR][dW][dY][dR][dR] [wwrwyrr]	78
[dR][dF][dE][dF][dR][dH][dR] [rfefrhr]	117
LRIRRYR	76
IR[Chg]RRYR [Ile-Arg-Chg-Arg-Arg-Tyr-Arg]	81
[dR][dF][dY][dR][dR][dH][dR] [rfyrrhr]	81
I[hArg]I[hArg]RYR [Ile-homoArg-Ile-homoArg-Arg-Tyr-Arg]	30
LRIRFFR	90
[dS][dF][dW][dY][dK][dR][dR] [sfwykrr]	116
[dR][dI][dR][dW][dY][dW][dK] [rirwywk]	110
YRLRYLR	99
[dY][dQ][dW][dR][dH][dW][dR] [yqwrhwr]	112
[dK][dY][dR][dW][dY][dR][dH] [kyrwyrh]	87
[dL][dW][dR][dR][dY][dH][dR] [lwrryhr]	108
[dF][dF][dR][dF][dH][dR][dR] [ffrfhrr]	104
[dH][dL][dR][dI][dW][dR][dN] [hlriwrn]	97
LTIRYYK	93
IRIRRWR	76
LFRYYQK	100
LVIRYHR	101
IRIRRYR	27
[dF][dW][dR][dW][dH][dR] [fwrwhr]	88
LWIKYHR	76
LRIYRVR	81
RFYRYLR	107
WTIKLWH	84
